The target of assay [1] is CD21 (CR2) on human CD21+ Raji lymphoblastoid cells (human) (UniProt P20023). Put plainly: flow cytometry on Raji cells, 100 nM; reference monomeric C3d (Calbiochem). Background: Flow cytometry measures light scatter and fluorescence of single cells or particles in a stream.
Assay [2] has as its target IgG constant region-CD21 fusion protein (UniProt P20023). Put plainly: ELISA, IgG constant region-CD21 fusion coated; reference monomeric C3d (Calbiochem). Background: ELISA stands for enzyme-linked immunosorbent assay.

These results are taken from patent US20070104726A1.

Regarding “linear trimer of human C3d, called C3d3 or APT2029”, the fold signal intensity increase against C3d (Calbiochem) in assay [1] was 6.4 fold. In assay [2], this substance gave a fold increase in gradient of the linear portion of the binding curve against monomeric C3d of 3.4 fold.
